Read-outs that look alike come from different tables or passages of the source. Primed or numbered codes have the meaning given here. * marks the point of attachment. Biotin = O=C1N[C@H]2[C@H](CS[C@H]2CCCCC(=O)*)N1; PEG4′ = not defined here

From patent publication US20210221878A1 (Bristol-Myers Squibb, published 2021) come the findings set out here.

Assay [1] addresses PFF used as inducer in the immunodepletion assay of Example 10 (human, UniProt P37840 1-140). The assay can be described thus: cell-based or functional assay.
The target in assay [2] is T1, α-synuclein inducing species in brain lysates of MSA patients (12-18, 01-03, 04-51) (human, UniProt P37840 1-140). The assay can be described thus: cell-based or functional assay.
Assay [3] deals with T1, α-synuclein inducing species in brain …. The assay can be described thus: cell-based or functional assay. This is another data set of the same source.
Assay [4] shares this target. The assay can be described thus: cell-based or functional assay. The source holds these as a separate data set.
A further assay deals with T2, 128-138.
T2 peptide: {Biotin-PEG4′}-PSEEGYQDYEP-NH2
The assay can be described thus: 1-sided ELISA on plate-bound biotinylated peptide, luminescence (CPS).

A further assay addresses T3, 119-129.
T3 peptide: {Biotin-PEG4′}-DPDNEAYEMPS-NH2
The description is as above.

In another assay the target is T4, 117-127.
T4 construct: also called alphaSyn 117-127
T4 peptide: {Biotin-PEG4′}-PVDPDNEAYEM-NH2
The description is as above.

In another assay the target is T5, 129-139.
T5 peptide: {Biotin-PEG4′}-SEEGYQDYEPE-NH2
The assay is described as above.

In a further assay the target is T6, 116-126.
T6 construct: also called alphaSyn 116-126
T6 peptide: {Biotin-PEG4′}-MPVDPDNEAYE-NH2
The assay is described as above.

The next assay deals with T7, 123-133.
T7 peptide: {Biotin-PEG4′}-EAYEMPSEEGY-NH2
The assay is described as above.

Another assay deals with T8, 125-135.
T8 peptide: {Biotin-PEG4′}-YEMPSEEGYQD-NH2
Described as above.

The target of the next assay is T9, 124-134.
T9 construct: also called alphaSyn 124-134
T9 peptide: {Biotin-PEG4′}-AYEMPSEEGYQ-NH2
The description is as above.

The next assay has as its target T10, 118-128.
T10 construct: also called alphaSyn 118-128
T10 peptide: {Biotin-PEG4′}-VDPDNEAYEMP-NH2
The assay is described as above.

The target in the next assay is T11, 130-140.
T11 construct: also called alphaSyn 130-140
T11 peptide: {Biotin-PEG4′}-EEGYQDYEPEA-NH2
Described as above.

The target of a further assay is T12, 121-131.
T12 construct: also called alphaSyn 121-131
T12 peptide: {Biotin-PEG4′}-DNEAYEMPSEE-NH2
The assay is described as above.

In a further assay the target is T13, 120-130.
T13 construct: also called alphaSyn 120-130
T13 peptide: {Biotin-PEG4′}-PDNEAYEMPSE-NH2
Described as above.

For the next assay, the target named is T14, 122-132.
T14 construct: also called alphaSyn 122-132
T14 peptide: {Biotin-PEG4′}-NEAYEMPSEEG-NH2
The assay is described as above.

In assay [5] the target is T15, full-length human recombinant wild-type β-synuclein monomer (human, UniProt Q16143 1-134).
T15 construct: mature; also called human βSyn monomer
T15 sequence (Q16143 whole entry): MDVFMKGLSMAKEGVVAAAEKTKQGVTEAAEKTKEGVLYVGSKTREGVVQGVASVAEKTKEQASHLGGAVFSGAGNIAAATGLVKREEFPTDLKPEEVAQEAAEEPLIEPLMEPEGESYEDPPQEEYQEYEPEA
The assay can be described thus: competition ELISA: antibody pre-incubated with titrated synuclein species in solution; unbound antibody captured on WT PFF-coated plate (CPS).

The target of assay [6] is T16, full-length human recombinant wild-type γ-synuclein monomer (human, UniProt O76070 1-127).
T16 construct: mature; also called human γSyn monomer
Described as above.

The target in assay [7] is T1, α-synuclein inducing species in brain …. The assay can be described thus: cell-based or functional assay. The source holds these as a separate data set.
Assay [8] concerns the target T15, full-length human recombinant wild-type …. The assay can be described thus: competition ELISA: antibody pre-incubated with titrated synuclein species in solution; unbound antibody captured on WT PFF-coated plate (CPS). The source holds these as a separate data set.
For assay [9], the target named is T16, full-length human recombinant wild-type …. The assay is described as above. This is another data set of the same source.
The target is the same in assay [10]. Described as above. This is another data set of the same source.

B1: 44B11 (antibody, V domains shown)
VH: EVQLVESGGGLIQPGGSLRLSCAASGFTVSSKYMSWVRQAPGKGLEWVSVMYSGGRRYYADSVKGRFTISRDNSKNTLYLQMNSLRAEDTAVYYCARGDRGDYWGQGTLVTVSS
VL: EIVLTQSPATLSLSPGERATLSCRASQSVSSYLAWYQQKPGQAPRLLIYDASNRATGIPARFSGSGSGTDFTLTISSLEPEDFAVYYCQQRSNWPITFGQGTRLEIK
With B1, the “Fold Antibody 1, immunodepletion of PFF” value in [1] came out at 1.1 fold. In addition, in assay [1], the “IC50 (nM), immunodepletion of pS129-inducing activity from PFF” value (“IC50 (nM), immunodepletion … from PFF” for short) was found to be 0.028 nM. Besides, in assay [2], the “Fold Antibody 1, immunodepletion of MSA 01-03 lysate” value came out at 0.9 fold. Further, in assay [2], the “IC50 (nM), immunodepletion of pS129-inducing activity from MSA 01-03 lysate” value (“IC50 (nM) … from MSA 01-03 lysate” below) came out at 2.7 nM. Besides, the “Fold Antibody 1, immunodepletion of MSA 12-18 lysate” value in assay [3] was found to be 2.5 fold. The “IC50 (nM), immunodepletion of pS129-inducing activity from MSA 12-18 lysate” value (shortened to “IC50 (nM) … from MSA 12-18 lysate”) in assay [3] was determined as 2.21 nM. In addition, the “Fold Antibody 1, immunodepletion of MSA 04-51 lysate” value in assay [4] stood at 1.1 fold. Besides, the “IC50 (nM), immunodepletion of pS129-inducing activity from MSA 04-51 lysate” value (“IC50 (nM) … from MSA 04-51 lysate” below) in [4] was determined as 0.41 nM. The binding result with 128-138 is “no binding”; in the assay with 119-129, “no binding”; with 117-127 it was “no binding”; with 129-139, “binds”; with 116-126, “no binding”; in the assay with 123-133 it was “no binding”. Further, the binding result with 125-135 was “no binding”; with 124-134, “no binding”; in the assay with 118-128, “no binding”; in the assay with 130-140, “binds”; with 121-131 it was “no binding”; in the assay with 120-130, “no binding”. Further, the binding result with 122-132 is given as “no binding”.

B2: 15A5 (antibody, V domains shown)
VH: QVQLQESGPGLVKPSETLSLTCTVSGGSVSSGSYYWCWIRQPPGKGLEWIGYIYYSGRTKYNPSLKSRVTISVDTSKNQFSLKLSSVTAADTAVYYCARERGRFDYWGQGTLVTVSS
VL: not shown
Take B2: the “IC50 (nM), immunodepletion … from PFF” value in [1] amounted to 0.042 nM. The “IC50 (nM) … from MSA 01-03 lysate” value in assay [2] worked out at 0.59 nM. In addition, the “IC50 (nM) … from MSA 12-18 lysate” value in assay [3] was determined as 0.61 nM. Further, in assay [4], the “IC50 (nM) … from MSA 04-51 lysate” value came to 0.12 nM. The binding result in assay [5] and in [6] was “binds” in each case.

B3: 7A10-hIgG1.3f (antibody, V domains shown)
VH: QVQLQESGPGLVKPSETLSLTCTVSGGSVSSGRYYWSWIRQPPGKGLEWIGYIYYSGRTKYNPSLKSRVTISVDTSKNQFSLKLSSVTAADTAVYYCTRERGYLDYWGQGTLVTVSS
VL: not shown
For the molecule B3, in [7], the “IC50 (nM) … from MSA 12-18 lysate” value was 0.52 nM.

B4: 36A3 (antibody, V domains shown)
VH: QVQLQESGPGLVKPSETLSLTCTVSGGSVSSGSYYWSWIRQPPGKGLEWIGYIYYSGRTKYNPSLKSRVTISVDTSRNQFSLKLSSVTAADTAVYYCARERGWLDPWGQGTLVTVSS
VL: not shown
With B4, the “IC50 (nM), immunodepletion … from PFF” value in assay [1] came out at 0.057 nM. The “IC50 (nM) … from MSA 01-03 lysate” value in [2] amounted to 0.55 nM. The “IC50 (nM) … from MSA 12-18 lysate” value in assay [3] turned out to be 0.63 nM. Further, the “IC50 (nM) … from MSA 04-51 lysate” value in assay [4] came out at 0.17 nM.

B5: 21A3-Vh-V82L-hHC-IgG1.3f (antibody, V domains shown)
VH: QVQLQESGPGLVKPSETLSLTCTVSGGSVSNRNYYWSWIRQPPGKGLEWIGYIYYSGRTKYNPSLKSRVTISVDTSKNQFSLKLSSVTAADTAVYYCARERGRFDYWGQGTLVTVSS
VL: not shown
Consider B5, for which the “IC50 (nM) … from MSA 12-18 lysate” value in assay [7] amounted to 0.11 nM.

B6: 21A3-hIgG1.3f (antibody, V domains shown)
VH: QVQLQESGPGLVKPSETLSLTCTVSGGSVSNRNYYWSWIRQPPGKGLEWIGYIYYSGRTKYNPSLKSRVTISVDTSKNQFSLKVSSVTAADTAVYYCARERGRFDYWGQGTLVTVSS
VL: not shown
On to B6, for which the “IC50 (nM) … from MSA 12-18 lysate” value in assay [7] is 0.19 nM.

B7: 7A10-Vh-T93A-hHC-IgG1.3f (antibody, V domains shown)
VH: QVQLQESGPGLVKPSETLSLTCTVSGGSVSSGRYYWSWIRQPPGKGLEWIGYIYYSGRTKYNPSLKSRVTISVDTSKNQFSLKLSSVTAADTAVYYCARERGYLDYWGQGTLVTVSS
VL: not shown
Regarding B7, the “IC50 (nM) … from MSA 12-18 lysate” value in [7] stood at 0.66 nM.

B8: 7A10-Vh-R56S-K58N-T93A-IgG1.3f (antibody, name in Kabat numbering, V domains shown)
VH: QVQLQESGPGLVKPSETLSLTCTVSGGSVSSGRYYWSWIRQPPGKGLEWIGYIYYSGSTNYNPSLKSRVTISVDTSKNQFSLKLSSVTAADTAVYYCARERGYLDYWGQGTLVTVSS
VL: not shown
With B8, the “IC50 (nM) … from MSA 12-18 lysate” value in assay [7] stood at 51 nM.

B9: 21A3 (antibody, V domains shown)
VH: QVQLQESGPGLVKPSETLSLTCTVSGGSVSNRNYYWSWIRQPPGKGLEWIGYIYYSGRTKYNPSLKSRVTISVDTSKNQFSLKVSSVTAADTAVYYCARERGRFDYWGQGTLVTVSS
VL: not shown
notes: also called 21A03
For B9, the binding result in assay [8] and in assay [9] was “binds” each time. The “IC50 (nM), immunodepletion … from PFF” value in assay [1] was determined as 0.061 nM. For the same molecule, in assay [2], the “IC50 (nM) … from MSA 01-03 lysate” value worked out at 0.37 nM. For the same molecule, the “IC50 (nM) … from MSA 12-18 lysate” value in assay [3] was 0.16 nM. Also, the “IC50 (nM) … from MSA 04-51 lysate” value in assay [4] is 0.05 nM.

B10: 7A10 (antibody, V domains shown)
VH: QVQLQESGPGLVKPSETLSLTCTVSGGSVSSGRYYWSWIRQPPGKGLEWIGYIYYSGRTKYNPSLKSRVTISVDTSKNQFSLKLSSVTAADTAVYYCTRERGYLDYWGQGTLVTVSS
VL: not shown
Take B10: the “IC50 (nM), immunodepletion … from PFF” value in [1] stood at 0.018 nM. Also, the “IC50 (nM) … from MSA 01-03 lysate” value in [2] was determined as 0.28 nM. Besides, in [3], the “IC50 (nM) … from MSA 12-18 lysate” value is 0.39 nM. Also, in assay [4], the “IC50 (nM) … from MSA 04-51 lysate” value is 0.04 nM. Moreover, in assay [10], the binding result was “binds”.

B11: 7A10-Vh-R56S-T93A-hHC-IgG1.3f (antibody, name in Kabat numbering, V domains shown)
VH: QVQLQESGPGLVKPSETLSLTCTVSGGSVSSGRYYWSWIRQPPGKGLEWIGYIYYSGSTKYNPSLKSRVTISVDTSKNQFSLKLSSVTAADTAVYYCARERGYLDYWGQGTLVTVSS
VL: not shown
B11: the “IC50 (nM) … from MSA 12-18 lysate” value in [7] is 9 nM.

B12: 7A10-Vh-K58Y-T93A-hHC-IgG1.3f (antibody, name in Kabat numbering, V domains shown)
VH: QVQLQESGPGLVKPSETLSLTCTVSGGSVSSGRYYWSWIRQPPGKGLEWIGYIYYSGRTYYNPSLKSRVTISVDTSKNQFSLKLSSVTAADTAVYYCARERGYLDYWGQGTLVTVSS
VL: not shown
For the molecule B12, the “IC50 (nM) … from MSA 12-18 lysate” value in assay [7] was determined as 4.65 nM.
